Literature values as cited in patent US20260201061A1, “COMBINATION FOR TREATMENT AND PREVENTION OF CANCER” (Hummingbird Bioscience Pte. Ltd., priority 2022, published 2026).

Target: HER3 (Homo sapiens, UniProt P21860)

Row | Molecule | inhibition of binding of heregulin (HRG)/ligand to HER3
1 | Patritumab: anti-HER3 antibody [reference compound] | inhibit HER3-mediated signaling by blocking binding of heregulin (HRG) to HER3
2 | ISU104: anti-HER3 antibody, mainly binds to domain III of HER3 (antibody, chains of the INN, looked up, V domains shown) VH: EVQLLESGGGLVQPGGSLRLSCAASGFTFSDYDMSWVRQAPGKGLEWVSTIDLDSGSIYYADSVQGRFTISRDNSKNTLYLQMNSLRAEDTAVYYCAKDLHMGPEGPFDYWGQGTLVTVSS VL: QSVLTQPPSASGTPGQRVTISCSGSSSNIGSNSVSWYQQLPGTAPKLLIYSDNHRPSGVPDRFSGSKSGTSASLAISGLRSEDEADYYCQGWDTSLSGHVFGGGTKLTVL | dose-dependent inhibition of binding of HRG to HER3
3 | seribantumab: anti-HER3 antibody (antibody, chains of the INN, looked up) heavy: EVQLLESGGGLVQPGGSLRLSCAASGFTFSHYVMAWVRQAPGKGLEWVSSISSSGGWTLYADSVKGRFTISRDNSKNTLYLQMNSLRAEDTAVYYCTRGLKMATIFDYWGQGTLVTVSSASTKGPSVFPLAPCSRSTSESTAALGCLVKDYFPEPVTVSWNSGALTSGVHTFPAVLQSSGLYSLSSVVTVPSSNFGTQTYTCNVDHKPSNTKVDKTVERKCCVECPPCPAPPVAGPSVFLFPPKPKDTLMISRTPEVTCVVVDVSHEDPEVQFNWYVDGVEVHNAKTKPREEQFNSTFRVVSVLTVVHQDWLNGKEYKCKVSNKGLPAPIEKTISKTKGQPREPQVYTLPPSREEMTKNQVSLTCLVKGFYPSDIAVEWESNGQPENNYKTTPPMLDSDGSFFLYSKLTVDKSRWQQGNVFSCSVMHEALHNHYTQKSLSLSPG light: QSALTQPASVSGSPGQSITISCTGTSSDVGSYNVVSWYQQHPGKAPKLIIYEVSQRPSGVSNRFSGSKSGNTASLTISGLQTEDEADYYCCSYAGSSIFVIFGGGTKVTVLGQPKAAPSVTLFPPSSEELQANKATLVCLVSDFYPGAVTVAWKADGSPVKVGVETTKPSKQSNNKYAASSYLSLTPEQWKSHRSYSCRVTHEGSTVEKTVAPAECS | inhibit HER3-mediated signaling by blocking binding of heregulin (HRG) to HER3
